Our source for the EC50 values is the supplement of paper PMC6379048.

Assay in all cases: EC50 of free RNA motif oligo competing protein binding to immobilised probe
One data set concerns the target T1, C1QBP (UniProt Q07021).
T1 sequence: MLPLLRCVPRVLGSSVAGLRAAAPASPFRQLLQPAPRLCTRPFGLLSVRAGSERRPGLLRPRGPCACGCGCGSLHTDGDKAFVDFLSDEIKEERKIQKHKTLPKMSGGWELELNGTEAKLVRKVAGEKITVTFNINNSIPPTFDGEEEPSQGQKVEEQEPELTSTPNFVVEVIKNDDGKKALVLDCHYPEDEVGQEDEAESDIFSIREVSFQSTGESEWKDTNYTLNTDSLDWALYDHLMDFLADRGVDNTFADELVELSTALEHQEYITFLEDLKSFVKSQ
The procedure, abridged:
(§1)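 To obtain EC50, data were fitted with a four-parameter log-logistic model; Kd was then EC50 multiplied by a protein-dependent depletion factor. Beforehand, free RNA oligos (0 nM to 30 μM) were pre-incubated with HEK293-FT lysate (2.5 mg protein/well) for 1 h at 4°C. The lysate then spent 30 min at 4°C with the same 5′-amino-C6 oligos coupled to NHS-Sepharose beads, and bound proteins were quantified by label-free LC-MS/MS, normalised to the control.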

Another data set concerns the target CSNK2B (UniProt P67870). Put shortly:
as §1

The next data set deals with T2, TIA1 (UniProt P31483).
T2 sequence: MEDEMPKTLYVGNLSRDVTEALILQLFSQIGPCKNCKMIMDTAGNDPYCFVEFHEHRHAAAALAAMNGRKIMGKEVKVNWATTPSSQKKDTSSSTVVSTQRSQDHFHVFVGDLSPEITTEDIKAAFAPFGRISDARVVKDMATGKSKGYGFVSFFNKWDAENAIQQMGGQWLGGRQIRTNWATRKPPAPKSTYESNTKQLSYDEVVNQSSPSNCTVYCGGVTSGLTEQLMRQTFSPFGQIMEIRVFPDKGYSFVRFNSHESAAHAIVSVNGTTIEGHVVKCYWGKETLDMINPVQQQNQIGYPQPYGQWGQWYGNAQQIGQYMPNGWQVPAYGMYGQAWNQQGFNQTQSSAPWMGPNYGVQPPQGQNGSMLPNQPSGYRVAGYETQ
The procedure, abridged: as §1

The next data set has as its target U2AF2 (UniProt P26368). Put shortly: as §1
The target of another data set is MRPL14 (UniProt Q6P1L8). The procedure, abridged: as §1
A further data set deals with MRPL38 (UniProt Q96DV4). The procedure, abridged: as §1
The target of the next data set is RPS18 (UniProt P62269). Put shortly: as §1
In the next data set the target is RPS3A (UniProt P61247). The procedure, abridged: as §1
A further data set deals with RPS5 (UniProt P46782). The procedure, abridged: as §1
Another data set has as its target MRPS7 (UniProt Q9Y2R9). The procedure, abridged:
as §1

In a further data set the target is T3, PRPF31 (UniProt Q8WWY3).
T3 sequence: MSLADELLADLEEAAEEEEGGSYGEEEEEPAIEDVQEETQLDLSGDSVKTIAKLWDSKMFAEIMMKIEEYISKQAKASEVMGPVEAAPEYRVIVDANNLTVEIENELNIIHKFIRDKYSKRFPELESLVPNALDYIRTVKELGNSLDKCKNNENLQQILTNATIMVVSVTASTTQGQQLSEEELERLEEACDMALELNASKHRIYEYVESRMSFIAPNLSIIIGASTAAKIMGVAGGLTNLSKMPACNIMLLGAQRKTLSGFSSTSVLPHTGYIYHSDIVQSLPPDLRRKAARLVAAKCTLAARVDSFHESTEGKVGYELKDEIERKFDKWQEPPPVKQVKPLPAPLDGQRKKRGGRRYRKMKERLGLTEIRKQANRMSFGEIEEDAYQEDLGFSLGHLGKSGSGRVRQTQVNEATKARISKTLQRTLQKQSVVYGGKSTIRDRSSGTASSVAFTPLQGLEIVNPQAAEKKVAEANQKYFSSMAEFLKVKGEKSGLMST
The procedure, abridged:
as §1

Sequence of CSNK2B (P67870 whole entry): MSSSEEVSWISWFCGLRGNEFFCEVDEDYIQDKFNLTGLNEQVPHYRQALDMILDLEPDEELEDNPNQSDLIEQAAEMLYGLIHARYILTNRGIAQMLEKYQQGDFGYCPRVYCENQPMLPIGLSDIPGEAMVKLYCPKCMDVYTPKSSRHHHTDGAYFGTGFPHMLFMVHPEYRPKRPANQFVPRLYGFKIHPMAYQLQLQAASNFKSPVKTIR
Sequence of U2AF2 (P26368 whole entry): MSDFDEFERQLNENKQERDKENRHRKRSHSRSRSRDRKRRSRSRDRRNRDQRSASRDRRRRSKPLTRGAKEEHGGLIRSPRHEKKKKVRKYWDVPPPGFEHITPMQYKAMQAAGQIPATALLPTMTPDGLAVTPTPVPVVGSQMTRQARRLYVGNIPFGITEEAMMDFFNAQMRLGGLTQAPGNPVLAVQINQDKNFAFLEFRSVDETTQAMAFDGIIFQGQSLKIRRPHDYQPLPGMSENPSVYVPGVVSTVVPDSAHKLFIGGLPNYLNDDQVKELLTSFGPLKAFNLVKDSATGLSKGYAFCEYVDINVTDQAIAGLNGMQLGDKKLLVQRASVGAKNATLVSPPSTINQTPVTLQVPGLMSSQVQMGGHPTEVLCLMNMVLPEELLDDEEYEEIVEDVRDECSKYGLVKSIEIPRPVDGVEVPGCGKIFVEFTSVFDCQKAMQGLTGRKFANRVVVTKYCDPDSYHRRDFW

With AAUAAA, the half-maximal effective concentration (EC50) with C1QBP amounted to 1470 nM; in the data set with CSNK2B, 3560 nM; with TIA1, 2110 nM; in the data set with U2AF2 it was 1010 nM.
Take CUGUCCU: the EC50 in the data set with MRPL14 came out at 104 nM; in the data set with MRPL38, 119 nM; with RPS18 it was 89.4 nM; with RPS3A it was 106 nM; with RPS5, 303 nM.
In the case of UAUUUAU, the concentration for a half-maximal effect (EC50) worked out at 84.2 nM with MRPS7 and 5840 nM with PRPF31.

For orientation: EC50 means the midpoint of the concentration-response curve.
